The text below walks through data of the supplement of paper PMC10724198.

± gives the standard deviation of the averaged measurements.
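Note: PSI is a weighted mean of sequencing reads over stability bins, variants kept only with over 10 reads, mCherry proximal and sfGFP distal, peptide attached via GGGS linker.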

This data set has as its system Saccharomyces cerevisiae. The data set can be described thus: protein stability index of tFT-peptide fusion (C-terminal peptide) (PSI (0-1 scale)); higher = more stable (slower turnover). The following applies: genetic background: wild type; temperature: 30 C.
Take LGWDGSRRRPGL: the protein stability index amounted to 0.727 ± 0.14.

LHAGHSNSVLAF came in with a protein stability index of 0.601 ± 0.0075.

For the sequence LHCKDWGHESRD, the protein stability index amounted to 0.6838 ± 0.0057.

For LHHLASPSPPTP, the protein stability index was 0.797 ± 0.015.

LHMVSCFLCSLW had a protein stability index of 0.564 ± 0.018.

In turn, LHPPTHPQLPSS showed a protein stability index of 0.7214 ± 0.0059.

Sequence LHRRIPFPTQAL displayed a protein stability index of 0.567 ± 0.017.

Sequence LHSIPLNPYLIA showed a protein stability index of 0.712 ± 0.16.

For the sequence LHSRKSDFSVIA, the protein stability index worked out at 0.656 ± 0.046.

LIDYGLDVSLSL: the protein stability index is 0.703 ± 0.015.

Turning to LIFPPLPPLPPR, the protein stability index is 0.754 ± 0.01.

The sequence LIISDVTGFSHL came in with a protein stability index of 0.6576 ± 0.0029.

On to LIKKSFYMKIIK, for which the protein stability index is 0.59 ± 0.057.

For the sequence LIPAASLSPLAC, the protein stability index was determined as 0.562 ± 0.013.

The sequence LIPIRGESTFRF showed a protein stability index of 0.779 ± 0.11.

LIPLPPPPLPPP had a protein stability index of 0.623 ± 0.09.

In turn, LIPTIRRKHRAT displayed a protein stability index of 0.625 ± 0.014.

Sequence LIRVSPDVNITA yielded a protein stability index of 0.622 ± 0.066.

LIYKRQPAFRCG showed a protein stability index of 0.632 ± 0.023.

In turn, LKAACAKRGVLS came in with a protein stability index of 0.679 ± 0.085.

For the sequence LKFRETHIRNHP, the protein stability index was determined as 0.701 ± 0.05.

Turning to LKPMSRKSLRSM, the protein stability index came to 0.715 ± 0.022.

The sequence LKRPDVTKKKSI yielded a protein stability index of 0.62 ± 0.077.

Consider LLAVLSPAAPLP, for which the protein stability index amounted to 0.696 ± 0.058.

For the sequence LLCFRLFPALTP, the protein stability index was 0.6228 ± 0.0057.

For LLCHAGRTPRPP, the protein stability index was 0.646 ± 0.013.

LLCPSPPSDIPP: the protein stability index worked out at 0.661 ± 0.016.

Take LLDGASALIFGG: the protein stability index is 0.617 ± 0.057.

In turn, LLDSLCEKTFRS displayed a protein stability index of 0.677 ± 0.032.

Take LLESTAHGKGIR: the protein stability index was 0.683 ± 0.022.

LLFPFSLHLSPP came in with a protein stability index of 0.765 ± 0.066.

As for LLFSPTHEPRIW, the protein stability index turned out to be 0.734 ± 0.075.

For LLFSPTRVFLRY, the protein stability index was 0.49 ± 0.053.

With LLFSSPPARMCP, the protein stability index was 0.786 ± 0.1.

The sequence LLGHSTPAHVFL came in with a protein stability index of 0.7129 ± 0.0031.

LLGKVAYFFMFG came in with a protein stability index of 0.631 ± 0.025.

LLGVRLGVLSFA yielded a protein stability index of 0.58 ± 0.01.

In turn, LLHEAFSSPLSS returned a protein stability index of 0.7164 ± 0.0068.

Sequence LLHHSSVSFFSL returned a protein stability index of 0.71 ± 0.016.

In turn, LLHWGRWRRGRR had a protein stability index of 0.722 ± 0.046.

For LLIYIPLFEWAR, the protein stability index amounted to 0.526 ± 0.028.

Regarding LLKQDNSVLSEL, the protein stability index was 0.63 ± 0.07.

Regarding LLLARWASFIMS, the protein stability index worked out at 0.685 ± 0.01.

For LLLASSHAPYLH, the protein stability index was found to be 0.77 ± 0.021.

LLLLDLWLPSVL registered a protein stability index of 0.76 ± 0.059.

In turn, LLLLNSFFISPP displayed a protein stability index of 0.742 ± 0.027.

For the sequence LLLPSTPSPLLY, the protein stability index was 0.609 ± 0.014.

Consider LLPFCPPCLRSL, for which the protein stability index was found to be 0.648 ± 0.018.

LLPFDTYPPTSP gave a protein stability index of 0.695 ± 0.036.

With LLPLAPSPPPPH, the protein stability index came to 0.71 ± 0.042.

In the case of LLPPPPFSAPPS, the protein stability index amounted to 0.671 ± 0.012.

LLPPSHRASPRQ: the protein stability index is 0.694 ± 0.027.

Sequence LLPQSPRPLVHS had a protein stability index of 0.774 ± 0.065.

LLPSLLRPQPPA had a protein stability index of 0.699 ± 0.034.

As to LLPSPLSLTFPL, the protein stability index came out at 0.616 ± 0.013.

With LLPVFFISYPSS, the protein stability index came to 0.6545 ± 0.0053.

Take LLQLLGGFVFSA: the protein stability index came to 0.67 ± 0.018.

Take LLRLVFHLETSS: the protein stability index came to 0.547 ± 0.081.

In turn, LLRVLVTFDAFD yielded a protein stability index of 0.576 ± 0.021.

Take LLRWCFDLWWVL: the protein stability index is 0.532 ± 0.051.

LLSFLLFFVPGS had a protein stability index of 0.576 ± 0.0013.

Consider LLSPPPHPPPLI, for which the protein stability index was found to be 0.6648 ± 0.0038.

Turning to LLSPQPPSSPLP, the protein stability index is 0.69 ± 0.015.

The sequence LLSSPYPPDTFT returned a protein stability index of 0.6427 ± 0.0012.

As for LLTGPYRCIPLV, the protein stability index worked out at 0.608 ± 0.039.

As to LLTSRLSTPFLI, the protein stability index came to 0.53 ± 0.012.

In the case of LLVGVGGAGGVG, the protein stability index came to 0.603 ± 0.012.

Turning to LLVLPLVFSCSS, the protein stability index worked out at 0.53 ± 0.0078.

LLVWPLDQTFRL returned a protein stability index of 0.698 ± 0.019.

For LLWVSAPHRYVR, the protein stability index came out at 0.642 ± 0.036.

For LLYALLLSLFRY, the protein stability index was 0.595 ± 0.02.

As to LMSGFFCGLLYA, the protein stability index came out at 0.6181 ± 0.0029.

LMYGSVGVRGGE yielded a protein stability index of 0.76 ± 0.064.

In the case of LNCRCMLSRHCW, the protein stability index is 0.666 ± 0.032.

LNSCLIVDEPDI gave a protein stability index of 0.8026 ± 0.0048.

In turn, LNTVNGRSSTAK showed a protein stability index of 0.665 ± 0.019.

Consider LPACPHPPPLPD, for which the protein stability index was determined as 0.6594 ± 0.0047.

In turn, LPAHLLPPSSPS yielded a protein stability index of 0.741 ± 0.03.

LPAHPPAAPGAP showed a protein stability index of 0.692 ± 0.032.

LPAPPPPPPSPL displayed a protein stability index of 0.71 ± 0.074.
